One block for each molecule: values may come before it.
Columns and labels:
[1] = biological target: human mitochondrial cysteine desulfurase NFS1 (human); experiment: amino acid analysis + other: SAXS
human ISD11-His6 (human) = human ISD11-His6 (human) (UniProt Q9HD34); experiment: amino acid analysis + other: SAXS
[2] = biological target: [Acp]2:[ISD11]2:[NFS1]2 cysteine desulfurase complex (human | E. coli) (UniProt Q9HD34); experiment: SEC + other: amino acid analysis + other: SAXS
human ISD11-His6 = human ISD11-His6 (human, UniProt Q9HD34 1-91); experiment: amino acid analysis + other: SAXS
Sequence of human ISD11-His6 (Q9HD34 whole entry): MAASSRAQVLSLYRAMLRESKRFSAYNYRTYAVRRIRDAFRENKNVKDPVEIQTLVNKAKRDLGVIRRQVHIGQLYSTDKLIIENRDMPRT

Sequence of human mitochondrial cysteine desulfurase NFS1 (human) (Q9Y697 whole entry): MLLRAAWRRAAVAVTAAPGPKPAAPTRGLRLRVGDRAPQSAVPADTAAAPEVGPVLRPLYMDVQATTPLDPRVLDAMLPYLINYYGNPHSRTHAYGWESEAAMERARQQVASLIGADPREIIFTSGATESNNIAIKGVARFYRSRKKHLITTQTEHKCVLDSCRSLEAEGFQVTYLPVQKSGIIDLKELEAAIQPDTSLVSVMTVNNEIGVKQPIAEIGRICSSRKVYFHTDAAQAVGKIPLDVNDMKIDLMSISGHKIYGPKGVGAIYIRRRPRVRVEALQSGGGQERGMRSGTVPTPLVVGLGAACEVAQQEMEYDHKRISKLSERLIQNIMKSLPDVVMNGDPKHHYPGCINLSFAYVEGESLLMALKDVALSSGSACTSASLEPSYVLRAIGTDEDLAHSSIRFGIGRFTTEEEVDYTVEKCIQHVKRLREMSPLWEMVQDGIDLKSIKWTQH
Sequence of human ISD11-His6 (human) (Q9HD34 whole entry): as the sequence (Q9HD34 whole entry) above
Sequence of [Acp]2:[ISD11]2:[NFS1]2 cysteine desulfurase complex (human | E. coli) (Q9HD34 whole entry, looked up, one chain of several): as the sequence (Q9HD34 whole entry) above

stoichiometry N [1]: 1
Molecule: holo-form of E. coli acyl carrier protein (Acp) (from UniProt P0A6A8 1-78) (natural protein)

stoichiometry N (human ISD11-His6 (human)): 1
Molecule: human mitochondrial cysteine desulfurase NFS1 (enzyme)

stoichiometry N [2]: 2
Molecule: human frataxin FXN81-210 (mature form of frataxin) (from UniProt Q16595 81-210) (natural protein)

stoichiometry N (human ISD11-His6): 1
B1: holo-form of E. coli acyl carrier protein (Acp) (natural protein, UniProt P0A6A8 1-78, looked up)
chain: MSTIEERVKKIIGEQLGVKQEEVTNNASFVEDLGADSLDTVELVMALEEEFDTEIPDEEAEKITTVQAAIDYINGHQA
modifications: 4'-phosphopantetheine conjugated to S37

— article PMC5404276 (ACS Chemical Biology, 2017)
